Assay results taken from patent US20080108128A1, “Resonance Energy Transfer Assay System for Multi-Component Detection” (priority 2003, published 2008).

Biological target: T1, CCR2 (Homo sapiens, UniProt P41597)
T1 construct: expressed in transfected cells; host or cells: Cos-7
Assay: multiplex BRET assay of ligand induced CCR2:beta-arrestin-2 interaction in live Cos-7 cells
Assay type: cell-based
Details: Cos-7 cells co-expressing Rluc-Barr2, TRHR and CCR2 fusions (EYFP / t-dimer2(12)); MCP1 0.1 μM, 37° C. 10 min; coelenterazine h 5 μM
Description: A construct for the expression of bovine beta-arrestin-2, N-terminally fused to Rluc (Rluc-Barr2) was constructed by amplification of the bovine beta-arrestin-2 coding sequence by PCR using the Barr2-fw and Barr2-re primers (template: construct containing bovine beta-arrestin2 in pcDNA3 (Invitrogen)). The 5′ and 3′ primers used contained EcoRV and NotI restriction enzyme sites, respectively. A second PCR product, containing the coding sequence for Rluc, was generated by amplifying the Rluc cDNA sequence with the primers Rluc-fw and Rluc-re using the plasmid pRL-CMV (Promega) as a template. This second PCR product contained HindIII and EcoRV restriction site at the 5′ and 3′ ends, respectively. Both PCR products were then cloned together into the HindIII/NotI sites of pcDNA3 (Invitrogen). […]
Ligands or combinations of ligands were added to the samples to a final concentration of 1 μM for TRH and 0.1 μM for MCP1, the natural ligands for the TRHR and CCR2 receptors, respectively. […] A Varian Eclipse fluorescence spectrometer (Varian) was used to record luminescence spectra in the range between 400-700 nm after coelenterazine h (Molecular Probes) was added to the samples to a final concentration of 5 μM.
The spectra were further analysed by integrating the peak areas of the EYFP and t-dimer2(12) emission peaks as described in Example 2. […]

T1 sequence (P41597 1-360 isoform P41597-2): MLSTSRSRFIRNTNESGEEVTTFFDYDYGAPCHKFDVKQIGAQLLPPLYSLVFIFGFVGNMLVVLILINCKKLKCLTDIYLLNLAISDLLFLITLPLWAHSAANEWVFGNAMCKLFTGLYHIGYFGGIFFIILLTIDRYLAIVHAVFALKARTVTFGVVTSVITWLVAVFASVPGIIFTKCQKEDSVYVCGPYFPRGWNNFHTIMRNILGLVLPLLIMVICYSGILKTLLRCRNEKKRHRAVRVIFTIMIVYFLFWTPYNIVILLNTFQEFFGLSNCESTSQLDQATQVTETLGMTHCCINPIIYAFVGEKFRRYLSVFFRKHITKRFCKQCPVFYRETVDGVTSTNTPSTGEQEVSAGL
T1 sequence (P32120 whole entry partner): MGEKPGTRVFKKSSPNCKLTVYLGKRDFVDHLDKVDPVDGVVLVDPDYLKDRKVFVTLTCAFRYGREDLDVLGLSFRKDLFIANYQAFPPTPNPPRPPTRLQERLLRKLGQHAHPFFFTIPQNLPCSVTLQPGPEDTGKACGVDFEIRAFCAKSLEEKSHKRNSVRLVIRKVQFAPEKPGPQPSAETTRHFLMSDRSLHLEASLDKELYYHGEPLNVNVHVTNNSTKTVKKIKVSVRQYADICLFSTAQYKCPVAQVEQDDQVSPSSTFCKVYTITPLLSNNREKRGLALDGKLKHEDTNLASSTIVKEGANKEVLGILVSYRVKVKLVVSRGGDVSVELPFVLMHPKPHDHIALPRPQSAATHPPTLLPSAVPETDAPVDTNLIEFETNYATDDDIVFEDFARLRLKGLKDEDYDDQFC

Substance: MCP1: natural ligand for the CCR2 receptor
- ligand induced RET signal of CCR2 with Rluc-beta-arrestin-2: activated this receptor as was observed in an increase of the respective RET signal with beta-arrestin-2
